Source: PMC4899722

Legend:
[1] = molecular target: ASIC1a-2a-1a concatamer (rat) (UniProt P55926)
[2] = molecular target: ASIC1a-2a-2a concatamer (rat) (UniProt P55926)
[3] = molecular target: heteromeric ASIC1a/2a (oocytes co-expressing ASIC1a and ASIC2a) (rat) (UniProt P55926)

“psalmotoxin 1 (PcTx1) (from UniProt P60514 1-40) (peptide)” was tested, and the current left after 50 nM PcTx1 in the conditioning solution (pH 6.95), activation with pH 4.0, two-electrode voltage clamp in Xenopus oocytes; percent of the first current amplitude [1] was 15.7%, the current left after 50 nM PcTx1 in the conditioning solution (pH 6.95), activation with pH 4.0, two-electrode voltage clamp in Xenopus oocytes; percent of the first current amplitude [2] was 64.8% and the current left after 50 nM PcTx1 in the conditioning solution (pH 6.95), activation with pH 4.0, two-electrode voltage clamp in Xenopus oocytes; percent of the first current amplitude [3] was 66.5%.
